Laboratory results: patent US20240043505A1

B1: Nb17 (VHH)
VHH: HVQLVESGGGLVQAGGSLRLSCAASGSIFSSNAMSWYRQAPGKQRELVASITSGGNADYADSVKGRFTISRDKNTVYPEMSSLKPADTAVYYCHAVGQEASAYAPRAYWGQGTQVTVSS
B2: Nb21 (VHH)
VHH: QVQLVESGGGLVQAGGSLRLSCAVSGLGAHRVGWFRRAPGKEREFVAAIGANGGNTNYLDSVKGRFTISRDNAKNTIYLQMNSLKPQDTAVYYCAARDIETAEYTYWGQGTQVTVSS

Tests used:
Conditions in all cases: remark: other sources report otherwise
[1] = molecular target: T1, SARS-CoV-2 spike receptor-binding domain (RBD) (SARS-CoV-2), P0DTC2; test: indirect ELISA, RBD coated on plate, 4PL fit
[2] = molecular target: receptor-binding domain (RBD) of the SARS-CoV-2 spike (S) glycoprotein (SARS-CoV-2), P0DTC2
[3] = molecular target: T1, SARS-CoV-2 spike receptor-binding …; test: SPR (Biacore 3000), RBD immobilised, Nb as analyte, 1:1 Langmuir fit

Binder	ELISA affinity [1] [nM]	Buried surface area [2] [Å^2]	Kd [3] [pM]	koff [3] [s⁻¹]	kon [3] [M⁻¹ s⁻¹]
B1	0.45	921			
B2	0.3	850	< 1	< 1e-06	3.79e+06
